B1: PBXIP1 (parent)
chain: FGEDGIFRHDRLRFRDFVDALEDS
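Further: lentivirally expressed fusions sorted by FACS into six bins by GFP to DsRed ratio, PSI derived from sequencing read proportions per bin multiplied by bin number.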

The variants in the data set derive from B1. Put plainly: protein stability index of a GFP-peptide fusion (GPS, HEK-293T) (PSI 1-6); higher = more stable. The conditions noted are these: c terminus: a fixed tail appended.
With FGEQGIFRHDRLRFRDFVDALEDS [D4Q], the protein stability index came out at 1.83.

As for FGENGIFRHDRLRFRDFVDALEDS [D4N], the protein stability index turned out to be 1.98.

In the case of FGEAGIFRHDRLRFRDFVDALEDS [D4A], the protein stability index amounted to 1.62.

Take FGEEGIFRHDRLRFRDFVDALEDS [D4E]: the protein stability index is 3.08.

Consider FGEFGIFRHDRLRFRDFVDALEDS [D4F], for which the protein stability index came out at 1.74.

In the case of FGEHGIFRHDRLRFRDFVDALEDS [D4H], the protein stability index turned out to be 1.89.

Take FGEIGIFRHDRLRFRDFVDALEDS [D4I]: the protein stability index was determined as 1.73.

As for FGEVGIFRHDRLRFRDFVDALEDS [D4V], the protein stability index is 2.76.

Regarding FGEGGIFRHDRLRFRDFVDALEDS [D4G], the protein stability index is 1.17.

Regarding FGEPGIFRHDRLRFRDFVDALEDS [D4P], the protein stability index amounted to 1.94.

FGELGIFRHDRLRFRDFVDALEDS [D4L]: the protein stability index amounted to 1.99.

With FGEKGIFRHDRLRFRDFVDALEDS [D4K], the protein stability index was 1.82.

As to FGETGIFRHDRLRFRDFVDALEDS [D4T], the protein stability index is 2.24.

Take FGECGIFRHDRLRFRDFVDALEDS [D4C]: the protein stability index came to 2.52.

Take FGESGIFRHDRLRFRDFVDALEDS [D4S]: the protein stability index turned out to be 1.77.

Turning to FGEYGIFRHDRLRFRDFVDALEDS [D4Y], the protein stability index was 1.73.

Take FHEDGIFRHDRLRFRDFVDALEDS [G2H]: the protein stability index is 2.09.

As to FAEDGIFRHDRLRFRDFVDALEDS [G2A], the protein stability index stood at 1.63.

Regarding FCEDGIFRHDRLRFRDFVDALEDS [G2C], the protein stability index worked out at 2.83.

As for FYEDGIFRHDRLRFRDFVDALEDS [G2Y], the protein stability index worked out at 3.09.

Turning to FMEDGIFRHDRLRFRDFVDALEDS [G2M], the protein stability index was 2.91.

In the case of FWEDGIFRHDRLRFRDFVDALEDS [G2W], the protein stability index stood at 2.95.

In the case of FEEDGIFRHDRLRFRDFVDALEDS [G2E], the protein stability index amounted to 3.73.

Regarding FNEDGIFRHDRLRFRDFVDALEDS [G2N], the protein stability index was found to be 3.09.

Take FTEDGIFRHDRLRFRDFVDALEDS [G2T]: the protein stability index came out at 2.35.

Turning to FSEDGIFRHDRLRFRDFVDALEDS [G2S], the protein stability index came out at 2.48.

With FDEDGIFRHDRLRFRDFVDALEDS [G2D], the protein stability index was 3.36.

Take FIEDGIFRHDRLRFRDFVDALEDS [G2I]: the protein stability index turned out to be 1.97.

Turning to FQEDGIFRHDRLRFRDFVDALEDS [G2Q], the protein stability index was found to be 2.66.

Take FKEDGIFRHDRLRFRDFVDALEDS [G2K]: the protein stability index stood at 2.81.

As to FPEDGIFRHDRLRFRDFVDALEDS [G2P], the protein stability index turned out to be 2.61.

Consider FVEDGIFRHDRLRFRDFVDALEDS [G2V], for which the protein stability index worked out at 2.26.

In the case of FREDGIFRHDRLRFRDFVDALEDS [G2R], the protein stability index is 2.69.

As to FFEDGIFRHDRLRFRDFVDALEDS [G2F], the protein stability index amounted to 2.75.

FLEDGIFRHDRLRFRDFVDALEDS [G2L]: the protein stability index amounted to 2.96.

With FGEDGIFQHDRLRFRDFVDALEDS [R8Q], the protein stability index was found to be 2.97.

For the variant FGEDGIFVHDRLRFRDFVDALEDS [R8V], the protein stability index was 2.93.

On to FGEDGIFCHDRLRFRDFVDALEDS [R8C], for which the protein stability index was 2.51.

Consider FGEDGIFAHDRLRFRDFVDALEDS [R8A], for which the protein stability index is 3.29.

In the case of FGEDGIFIHDRLRFRDFVDALEDS [R8I], the protein stability index turned out to be 3.09.

With FGEDGIFFHDRLRFRDFVDALEDS [R8F], the protein stability index came to 1.95.

As for FGEDGIFPHDRLRFRDFVDALEDS [R8P], the protein stability index came out at 3.8.

For the variant FGEDGIFLHDRLRFRDFVDALEDS [R8L], the protein stability index came out at 2.55.

On to FGEDGIFWHDRLRFRDFVDALEDS [R8W], for which the protein stability index was 2.05.

With FGEDGIFEHDRLRFRDFVDALEDS [R8E], the protein stability index was determined as 4.23.

In the case of FGEDGIFHHDRLRFRDFVDALEDS [R8H], the protein stability index was determined as 2.65.

With FGEDGIFGHDRLRFRDFVDALEDS [R8G], the protein stability index turned out to be 2.93.

With FGEDGIFDHDRLRFRDFVDALEDS [R8D], the protein stability index is 3.74.

Take FGEDGIFTHDRLRFRDFVDALEDS [R8T]: the protein stability index is 2.48.

With FGEDGIFKHDRLRFRDFVDALEDS [R8K], the protein stability index was found to be 2.23.

Regarding FGEDGIFMHDRLRFRDFVDALEDS [R8M], the protein stability index was 3.06.

Consider FGEDGIFSHDRLRFRDFVDALEDS [R8S], for which the protein stability index is 2.85.

FGEDGIFNHDRLRFRDFVDALEDS [R8N]: the protein stability index was 3.16.

Regarding FGEDGIFYHDRLRFRDFVDALEDS [R8Y], the protein stability index worked out at 2.46.

Take FGEDGIFRCDRLRFRDFVDALEDS [H9C]: the protein stability index is 2.47.

In the case of FGEDGIFRADRLRFRDFVDALEDS [H9A], the protein stability index amounted to 2.84.

Take EGEDGIFRHDRLRFRDFVDALEDS [F1E]: the protein stability index stood at 4.29.

On to CGEDGIFRHDRLRFRDFVDALEDS [F1C], for which the protein stability index stood at 2.39.

With GGEDGIFRHDRLRFRDFVDALEDS [F1G], the protein stability index amounted to 3.59.

For the variant MGEDGIFRHDRLRFRDFVDALEDS [F1M], the protein stability index was 3.24.

On to TGEDGIFRHDRLRFRDFVDALEDS [F1T], for which the protein stability index is 3.08.

For the variant QGEDGIFRHDRLRFRDFVDALEDS [F1Q], the protein stability index came out at 4.12.

With VGEDGIFRHDRLRFRDFVDALEDS [F1V], the protein stability index came to 3.77.

For AGEDGIFRHDRLRFRDFVDALEDS [F1A], the protein stability index worked out at 4.02.

On to YGEDGIFRHDRLRFRDFVDALEDS [F1Y], for which the protein stability index was determined as 2.72.

As for WGEDGIFRHDRLRFRDFVDALEDS [F1W], the protein stability index turned out to be 3.1.

Take DGEDGIFRHDRLRFRDFVDALEDS [F1D]: the protein stability index worked out at 4.29.

Turning to PGEDGIFRHDRLRFRDFVDALEDS [F1P], the protein stability index stood at 4.16.

For the variant IGEDGIFRHDRLRFRDFVDALEDS [F1I], the protein stability index worked out at 3.6.

In the case of RGEDGIFRHDRLRFRDFVDALEDS [F1R], the protein stability index was found to be 3.78.

In the case of KGEDGIFRHDRLRFRDFVDALEDS [F1K], the protein stability index amounted to 2.64.

In the case of SGEDGIFRHDRLRFRDFVDALEDS [F1S], the protein stability index was 3.74.

For the variant HGEDGIFRHDRLRFRDFVDALEDS [F1H], the protein stability index came out at 3.76.

As for NGEDGIFRHDRLRFRDFVDALEDS [F1N], the protein stability index was found to be 3.81.

As to LGEDGIFRHDRLRFRDFVDALEDS [F1L], the protein stability index came to 3.14.

As for FGLDGIFRHDRLRFRDFVDALEDS [E3L], the protein stability index came out at 2.44.

For the variant FGCDGIFRHDRLRFRDFVDALEDS [E3C], the protein stability index stood at 2.17.

Turning to FGSDGIFRHDRLRFRDFVDALEDS [E3S], the protein stability index is 2.02.

As to FGVDGIFRHDRLRFRDFVDALEDS [E3V], the protein stability index is 2.05.

As for FGQDGIFRHDRLRFRDFVDALEDS [E3Q], the protein stability index was found to be 2.91.

FGRDGIFRHDRLRFRDFVDALEDS [E3R]: the protein stability index was 3.02.

Regarding FGHDGIFRHDRLRFRDFVDALEDS [E3H], the protein stability index was 2.89.

As for FGGDGIFRHDRLRFRDFVDALEDS [E3G], the protein stability index turned out to be 2.11.

For FGDDGIFRHDRLRFRDFVDALEDS [E3D], the protein stability index came out at 3.01.

For FGMDGIFRHDRLRFRDFVDALEDS [E3M], the protein stability index is 2.45.

As for FGPDGIFRHDRLRFRDFVDALEDS [E3P], the protein stability index turned out to be 2.28.

Regarding FGIDGIFRHDRLRFRDFVDALEDS [E3I], the protein stability index is 2.91.

In the case of FGWDGIFRHDRLRFRDFVDALEDS [E3W], the protein stability index was determined as 2.18.

With FGTDGIFRHDRLRFRDFVDALEDS [E3T], the protein stability index worked out at 2.28.

As to FGKDGIFRHDRLRFRDFVDALEDS [E3K], the protein stability index is 2.52.

Consider FGNDGIFRHDRLRFRDFVDALEDS [E3N], for which the protein stability index turned out to be 1.99.

As to FGYDGIFRHDRLRFRDFVDALEDS [E3Y], the protein stability index was determined as 3.04.

For the variant FGFDGIFRHDRLRFRDFVDALEDS [E3F], the protein stability index came out at 2.18.

As to FGADGIFRHDRLRFRDFVDALEDS [E3A], the protein stability index stood at 2.75.
